In patent US20110117113A1, “IMMUNOGLOBULIN SINGLE VARIABLE DOMAIN DIRECTED AGAINST HUMAN CXCR4 AND OTHER CELL ASSOCIATED PROTEINS AND METHODS TO GENERATE THEM” (priority 2009, published 2011):

Columns and labels:
Test in all cases: Shotgun mutagenesis epitope mapping, immunofluorescence on CXCR4 mutation library in HEK-293T
Assay type in all cases: binding
[1] = biological target: T1, CXCR4 mutation library (Human CXCR4-short) (Homo sapiens, UniProt P61073, E277G); conditions: residue E277; mutation E277G; normalized to wild type; 3 experiments (+/−range); 238D2 critical residues under high stringency
T1 construct: expressed in transfected cells; host or cells: HEK-293T, transient, 384-well
Text: (§1) Method: See e.g. Willis, et al. 2008. Virus-like particles as quantitative probes of membrane protein interactions. Biochemistry 47:6988-6990. In short, the method comprises the following steps:
(§2) Create comprehensive mutation library • Start with a cDNA in eukaryotic expression plasmid • Create library where every amino acid is individually mutated
(§3) Express each clone within living cells in 384-well microplates
(§4) Detect structure and/or function of proteins
(§5) • Parental plasmid: Human CXCR4-short (SEQ ID NO: 6, 352 amino acids) • Epitope tags: N-terminal Flag (to detect surface expression), C-terminal V5 (to detect full-length translation) • Cell types used for immunofluorescence assays: HEK-293T
(§6) The immunofluorescence assay conditions (to detect binding) were optimized for the nanbodies to be tested. In short, 384-well immunofluorescence (IF) assay using HEK-293T cells transiently was transfected with different concentrations of CXCR4 DNA. The plate was first incubated with different concentrations of either Nanobody 238D2 or 238D4, then with 9E10, and finally with Cy3. The commercially-available anti-CXCR4 MAb 12G5 was used as an IF control.
(§7) Mapping Nanobody Binding to CXCR4 Mutation Library: The entire library was screened in triplicate with each Nanobody. The data was background-subtracted and normalized to wild type reactivity and averaged across the repeats. Nanobody binding was plotted as a function of average surface expression, and measured by immunoreactivity of an N-terminal Flag epitope tag. Thresholds of 60% Flag and 30% Nanobody were used to identify critical clones. Using standard IF conditions, we identified 1 critical residue (2 critical clones). Using increased stringency assay conditions (high salt), we identified 5 additional residues (Tables C-3 and C-4).

[2] = biological target: T2, CXCR4 mutation library (Human CXCR4-short) (Homo sapiens, UniProt P61073, N192K); conditions: residue N192; mutation N192K; normalized to wild type; 3 experiments (+/−range); 238D2 critical residues under high stringency
T2 construct: expressed in transfected cells; host or cells: HEK-293T, transient, 384-well
Text: as §1, §2, §3, §4, §5, §6, §7

[3] = tested on: CXCR4 mutation library (Human CXCR4-short)
Text: as §1, §2, §3, §4, §5, §6, §7

[4] = biological target: T3, CXCR4 mutation library (Human CXCR4-short) (Homo sapiens, UniProt P61073, P163L/S178I); conditions: residue S178; mutations P163L, S178I; normalized to wild type; 3 experiments (+/−range)
T3 construct: expressed in transfected cells; host or cells: HEK-293T, transient, 384-well
Text: as §1, §2, §3, §4, §5, §6, §7

[5] = biological target: T4, CXCR4 mutation library (Human CXCR4-short) (Homo sapiens, UniProt P61073, V196E); conditions: residue V196; mutation V196E; normalized to wild type; 3 experiments (+/−range); 238D2 critical residues under high stringency
T4 construct: expressed in transfected cells; host or cells: HEK-293T, transient, 384-well
Text: as §1, §2, §3, §4, §5, §6, §7

[6] = biological target: T5, CXCR4 mutation library (Human CXCR4-short) (Homo sapiens, UniProt P61073, F189L/S319P/V155E); conditions: residue F189; mutations F189L, S319P, V155E; normalized to wild type; 3 experiments (+/−range)
T5 construct: expressed in transfected cells; host or cells: HEK-293T, transient, 384-well
Text: as §1, §2, §3, §4, §5, §6, §7

[7] = biological target: T6, CXCR4 mutation library (Human CXCR4-short) (Homo sapiens, UniProt P61073, K230E/S178R); conditions: residue S178; mutations K230E, S178R; normalized to wild type; 3 experiments (+/−range)
T6 construct: expressed in transfected cells; host or cells: HEK-293T, transient, 384-well
Text: as §1, §2, §3, §4, §5, §6, §7

[8] = biological target: T7, CXCR4 mutation library (Human CXCR4-short) (Homo sapiens, UniProt P61073, E179V/G258E); conditions: residue E179; mutations E179V, G258E; normalized to wild type; 3 experiments (+/−range)
T7 construct: expressed in transfected cells; host or cells: HEK-293T, transient, 384-well
Text: as §1, §2, §3, §4, §5, §6, §7

[9] = biological target: T8, CXCR4 mutation library (Human CXCR4-short) (Homo sapiens, UniProt P61073, W195R); conditions: residue W195; mutation W195R; normalized to wild type; 3 experiments (+/−range); 238D2 critical residues under high stringency
T8 construct: expressed in transfected cells; host or cells: HEK-293T, transient, 384-well
Text: as §1, §2, §3, §4, §5, §6, §7

[10] = biological target: T9, CXCR4 mutation library (Human CXCR4-short) (Homo sapiens, UniProt P61073, F189S/K308R); conditions: residue F189; mutations F189S, K308R; normalized to wild type; 3 experiments (+/−range)
T9 construct: expressed in transfected cells; host or cells: HEK-293T, transient, 384-well
Text: as §1, §2, §3, §4, §5, §6, §7

[11] = biological target: T10, CXCR4 mutation library (Human CXCR4-short) (Homo sapiens, UniProt P61073, S178C); conditions: residue S178; mutation S178C; normalized to wild type; 3 experiments (+/−range)
T10 construct: expressed in transfected cells; host or cells: HEK-293T, transient, 384-well
Text: as §1, §2, §3, §4, §5, §6, §7

[12] = biological target: T11, CXCR4 mutation library (Human CXCR4-short) (Homo sapiens, UniProt P61073, P191T); conditions: residue P191; mutation P191T; normalized to wild type; 3 experiments (+/−range); 238D2 critical residues under high stringency
T11 construct: expressed in transfected cells; host or cells: HEK-293T, transient, 384-well
Text: as §1, §2, §3, §4, §5, §6, §7

[13] = biological target: T12, CXCR4 mutation library (Human CXCR4-short) (Homo sapiens, UniProt P61073, D187A/Y157C); conditions: residue D187; mutations D187A, Y157C; normalized to wild type; 3 experiments (+/−range)
T12 construct: expressed in transfected cells; host or cells: HEK-293T, transient, 384-well
Text: as §1, §2, §3, §4, §5, §6, §7

[14] = biological target: T13, CXCR4 mutation library (Human CXCR4-short) (Homo sapiens, UniProt P61073, F189V); conditions: residue F189; mutation F189V; normalized to wild type; 3 experiments (+/−range)
T13 construct: expressed in transfected cells; host or cells: HEK-293T, transient, 384-well
Text: as §1, §2, §3, §4, §5, §6, §7

[15] = biological target: T14, CXCR4 mutation library (Human CXCR4-short) (Homo sapiens, UniProt P61073, D187V); conditions: residue D187; mutation D187V; normalized to wild type; 3 experiments (+/−range)
T14 construct: expressed in transfected cells; host or cells: HEK-293T, transient, 384-well
Text: as §1, §2, §3, §4, §5, §6, §7

[16] = biological target: T15, CXCR4 mutation library (Human CXCR4-short) (Homo sapiens, UniProt P61073, E277A/I245V/N298S); conditions: residue E277; mutations E277A, I245V, N298S; normalized to wild type; 3 experiments (+/−range); 238D2 critical residues under high stringency
T15 construct: expressed in transfected cells; host or cells: HEK-293T, transient, 384-well
Text: as §1, §2, §3, §4, §5, §6, §7

T6 sequence (P61073 whole entry S178R/K230E): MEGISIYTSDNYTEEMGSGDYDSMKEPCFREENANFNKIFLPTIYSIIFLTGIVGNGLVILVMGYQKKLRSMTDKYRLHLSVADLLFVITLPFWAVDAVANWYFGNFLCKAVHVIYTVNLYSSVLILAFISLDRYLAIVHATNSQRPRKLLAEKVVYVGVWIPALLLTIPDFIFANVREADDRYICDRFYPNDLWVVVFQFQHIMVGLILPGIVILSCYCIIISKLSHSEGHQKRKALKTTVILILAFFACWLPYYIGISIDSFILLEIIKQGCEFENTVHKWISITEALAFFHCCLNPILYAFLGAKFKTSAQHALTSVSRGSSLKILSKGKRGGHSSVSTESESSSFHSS
T10 sequence (P61073 whole entry S178C): as the sequence (P61073 whole entry S178R/K230E) above, with R178C, E230K counted along it
T12 sequence (P61073 whole entry Y157C/D187A): as the sequence (P61073 whole entry S178R/K230E) above, with Y157C, R178S, D187A, E230K counted along it
T9 sequence (P61073 whole entry F189S/K308R): as the sequence (P61073 whole entry S178R/K230E) above, with R178S, F189S, E230K, K308R counted along it
T14 sequence (P61073 whole entry D187V): as the sequence (P61073 whole entry S178R/K230E) above, with R178S, D187V, E230K counted along it
T11 sequence (P61073 whole entry P191T): as the sequence (P61073 whole entry S178R/K230E) above, with R178S, P191T, E230K counted along it
T5 sequence (P61073 whole entry V155E/F189L/S319P): as the sequence (P61073 whole entry S178R/K230E) above, with V155E, R178S, F189L, E230K, S319P counted along it
T3 sequence (P61073 whole entry P163L/S178I): as the sequence (P61073 whole entry S178R/K230E) above, with P163L, R178I, E230K counted along it
T8 sequence (P61073 whole entry W195R): as the sequence (P61073 whole entry S178R/K230E) above, with R178S, W195R, E230K counted along it
T2 sequence (P61073 whole entry N192K): as the sequence (P61073 whole entry S178R/K230E) above, with R178S, N192K, E230K counted along it
T13 sequence (P61073 whole entry F189V): as the sequence (P61073 whole entry S178R/K230E) above, with R178S, F189V, E230K counted along it
T4 sequence (P61073 whole entry V196E): as the sequence (P61073 whole entry S178R/K230E) above, with R178S, V196E, E230K counted along it
T15 sequence (P61073 whole entry I245V/E277A/N298S): as the sequence (P61073 whole entry S178R/K230E) above, with R178S, E230K, I245V, E277A, N298S counted along it
T7 sequence (P61073 whole entry E179V/G258E): as the sequence (P61073 whole entry S178R/K230E) above, with R178S, E179V, E230K, G258E counted along it
T1 sequence (P61073 whole entry E277G): as the sequence (P61073 whole entry S178R/K230E) above, with R178S, E230K, E277G counted along it

B1: 238D2: monovalent anti CXCR4 Nanobody, SEQ ID NO: 2 (protein)
VHH: EVQLVESGGGLVQTGGSLRLSCAASGFTFSSYAMSWVRQAPGKGLEWVSGIKSSGDSTRYAGSVKGRFTISRDNAKNMLYLQMYSLKPEDTAVYYCAKSRVSRTGLYTYDNRGQGTQVTVSS
modifications: Nanobody
In the case of B1, the “% immunofluoresence, clone 3622” value [1] is reported as 19.5 (11.9) %, the “% immunofluoresence, clone 914” value [2] is reported as 8.3 (3.6) % and the “average nanobody reactivity, residue N192” value ([3]; all clones containing a mutation at N192, * high stringency conditions) is reported as 8.3*. The “average nanobody reactivity, residue P191” value ([3]; all clones containing a mutation at P191, * high stringency conditions) was 15.8*, the “average nanobody reactivity, residue V196” value ([3]; all clones containing a mutation at V196, * high stringency conditions) was 20.6* and the “average nanobody reactivity, residue W195” value ([3]; all clones containing a mutation at W195, * high stringency conditions) was 10.0*. The “average nanobody reactivity, residue E277” value ([3]; average of all clones containing a mutation at E277, * high stringency conditions) was 27.5*, the “average nanobody reactivity, residue F189” value ([3]; average of all clones containing a mutation at F189) was −0.9 and the “% immunofluoresence, clone 709” value [4] was 64.1 (19.6) %. The “% immunofluoresence, clone 2270” value [5] was 20.6 (32.9) %, the “% immunofluoresence, clone 465” value [6] was 31.8 (16.2) % and the “% immunofluoresence, clone 1057” value [7] was 54.6 (5.8) %. The “% immunofluoresence, clone 2834” value [8] was 84.6 (7.8) %, the “% immunofluoresence, clone 3630” value [9] was 10.0 (10.4) % and the “% immunofluoresence, clone 913” value [10] was −32.6 (18.7) %. The “% immunofluoresence, clone 2396” value [11] was 44.9 (13.4) %, the “% immunofluoresence, clone 2184” value [12] was 15.8 (5.4) % and the “% immunofluoresence, clone 3728” value [13] was 77.1 (18.2) %. The “% immunofluoresence, clone 1129” value [14] was −1.9 (24.2) %, the “% immunofluoresence, clone 2084” value [15] was 93.6 (5.2) % and the “% immunofluoresence, clone 185” value [16] was 35.5 (12.3) %.
